Target: the molecule itself
Assay: native MS

B1: MacB, His-tagged, purified (natural protein, E. coli, UniProt P75831 1-648, looked up)
chain: MTPLLELKDIRRSYPAGDEQVEVLKGISLDIYAGEMVAIVGASGSGKSTLMNILGCLDKATSGTYRVAGQDVATLDADALAQLRREHFGFIFQRYHLLSHLTAEQNVEVPAVYAGLERKQRLLRAQELLQRLGLEDRTEYYPAQLSGGQQQRVSIARALMNGGQVILADEPTGALDSHSGEEVMAILHQLRDRGHTVIIVTHDPQVAAQAERVIEIRDGEIVRNPPAIEKVNVTGGTEPVVNTVSGWRQFVSGFNEALTMAWRALAANKMRTLLTMLGIIIGIASVVSIVVVGDAAKQMVLADIRSIGTNTIDVYPGKDFGDDDPQYQQALKYDDLIAIQKQPWVASATPAVSQNLRLRYNNVDVAASANGVSGDYFNVYGMTFSEGNTFNQEQLNGRAQVVVLDSNTRRQLFPHKADVVGEVILVGNMPARVIGVAEEKQSMFGSSKVLRVWLPYSTMSGRVMGQSWLNSITVRVKEGFDSAEAEQQLTRLLSLRHGKKDFFTWNMDGVLKTVEKTTRTLQLFLTLVAVISLVVGGIGVMNIMLVSVTERTREIGIRMAVGARASDVLQQFLIEAVLVCLVGGALGITLSLLIAFTLQLFLPGWEIGFSPLALLLAFLCSTVTGILFGWLPARNAARLDPVDALARE
stoichiometry N: 2

From paper PMC2613632 (The Journal of Biological Chemistry, 2009)
